Reference: the supplement of paper PMC10065799, “High-throughput profiling of sequence recognition by tyrosine kinases and SH2 domains using bacterial peptide display” (eLife, 2023)

Columns and labels:
c-Src SH2 = assay: SH2 binding enrichment of the phosphorylated peptide, bacterial display (enrichment ratio); higher = better substrate or ligand; peptides without Tyr show the background
SHP2-C SH2 = assay: as above
Grb2 SH2 = Grb2 SH2 (UniProt P62993); assay: as above
c-Src = assay: phosphorylation enrichment, bacterial display (enrichment ratio); higher = better substrate or ligand; peptides without Tyr show the background
AncSZ = assay: as above
Fyn = Fyn (UniProt P06241); assay: as above
FGFR3 = FGFR3 (UniProt P22607); assay: as above
Chain of FGFR3 (P22607 whole entry, looked up): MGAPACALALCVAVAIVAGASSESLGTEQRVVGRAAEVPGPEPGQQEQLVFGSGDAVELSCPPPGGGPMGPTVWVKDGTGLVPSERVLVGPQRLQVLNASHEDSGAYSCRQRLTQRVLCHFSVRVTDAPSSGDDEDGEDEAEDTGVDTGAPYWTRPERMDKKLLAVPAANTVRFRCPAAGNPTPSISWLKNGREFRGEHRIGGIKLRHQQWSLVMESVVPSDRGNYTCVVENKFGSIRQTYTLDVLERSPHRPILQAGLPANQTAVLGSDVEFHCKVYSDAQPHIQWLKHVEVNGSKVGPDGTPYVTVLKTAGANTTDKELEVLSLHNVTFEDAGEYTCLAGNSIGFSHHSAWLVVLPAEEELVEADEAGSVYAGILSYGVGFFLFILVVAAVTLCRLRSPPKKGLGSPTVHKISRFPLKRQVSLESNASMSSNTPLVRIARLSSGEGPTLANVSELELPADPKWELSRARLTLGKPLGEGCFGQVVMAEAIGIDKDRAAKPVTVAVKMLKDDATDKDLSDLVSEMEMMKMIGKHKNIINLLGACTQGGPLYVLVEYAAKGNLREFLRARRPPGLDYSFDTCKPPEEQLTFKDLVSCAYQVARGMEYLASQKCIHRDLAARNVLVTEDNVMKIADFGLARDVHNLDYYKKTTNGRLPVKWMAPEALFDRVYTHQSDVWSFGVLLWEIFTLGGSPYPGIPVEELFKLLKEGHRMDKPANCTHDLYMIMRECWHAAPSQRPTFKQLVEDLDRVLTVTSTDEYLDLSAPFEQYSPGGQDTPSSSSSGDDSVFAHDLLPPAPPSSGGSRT

Jak2 = Jak2 (UniProt O60674); assay: as above
Chain of Jak2 (O60674 whole entry, looked up): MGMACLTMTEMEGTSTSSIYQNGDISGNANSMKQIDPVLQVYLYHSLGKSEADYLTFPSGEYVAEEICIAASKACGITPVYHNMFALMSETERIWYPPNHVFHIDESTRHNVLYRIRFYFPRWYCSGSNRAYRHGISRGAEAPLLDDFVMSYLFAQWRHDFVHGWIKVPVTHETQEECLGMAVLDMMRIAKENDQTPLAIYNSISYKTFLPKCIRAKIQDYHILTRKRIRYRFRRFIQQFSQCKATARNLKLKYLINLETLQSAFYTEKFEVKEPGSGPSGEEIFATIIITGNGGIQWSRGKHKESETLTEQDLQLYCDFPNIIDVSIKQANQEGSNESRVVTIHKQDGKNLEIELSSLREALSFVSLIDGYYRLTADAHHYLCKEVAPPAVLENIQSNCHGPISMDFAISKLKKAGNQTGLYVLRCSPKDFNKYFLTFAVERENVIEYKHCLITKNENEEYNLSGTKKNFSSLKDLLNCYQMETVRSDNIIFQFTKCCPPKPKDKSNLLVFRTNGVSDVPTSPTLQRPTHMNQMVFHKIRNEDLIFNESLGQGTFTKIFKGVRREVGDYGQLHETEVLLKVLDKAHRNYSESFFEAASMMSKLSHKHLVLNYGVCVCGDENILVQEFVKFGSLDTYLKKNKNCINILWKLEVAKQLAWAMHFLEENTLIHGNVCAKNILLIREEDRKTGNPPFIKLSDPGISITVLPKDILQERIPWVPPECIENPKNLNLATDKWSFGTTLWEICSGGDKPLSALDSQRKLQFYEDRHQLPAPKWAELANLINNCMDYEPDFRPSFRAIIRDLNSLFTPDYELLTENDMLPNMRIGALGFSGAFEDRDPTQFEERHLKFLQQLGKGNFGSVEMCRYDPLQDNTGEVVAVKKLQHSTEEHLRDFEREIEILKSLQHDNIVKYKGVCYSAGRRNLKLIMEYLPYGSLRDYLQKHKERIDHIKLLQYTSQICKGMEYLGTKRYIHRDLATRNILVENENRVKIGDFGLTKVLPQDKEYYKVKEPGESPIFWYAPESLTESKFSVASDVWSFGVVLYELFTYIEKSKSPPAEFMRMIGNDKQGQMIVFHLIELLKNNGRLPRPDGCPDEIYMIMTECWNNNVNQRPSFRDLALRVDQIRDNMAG

c-Abl (mouse) = assay: as above
EPHB1 = EPHB1 (UniProt P54762); assay: as above
Fes = Fes (UniProt P07332); assay: as above
Chain of Fes (P07332 whole entry, looked up): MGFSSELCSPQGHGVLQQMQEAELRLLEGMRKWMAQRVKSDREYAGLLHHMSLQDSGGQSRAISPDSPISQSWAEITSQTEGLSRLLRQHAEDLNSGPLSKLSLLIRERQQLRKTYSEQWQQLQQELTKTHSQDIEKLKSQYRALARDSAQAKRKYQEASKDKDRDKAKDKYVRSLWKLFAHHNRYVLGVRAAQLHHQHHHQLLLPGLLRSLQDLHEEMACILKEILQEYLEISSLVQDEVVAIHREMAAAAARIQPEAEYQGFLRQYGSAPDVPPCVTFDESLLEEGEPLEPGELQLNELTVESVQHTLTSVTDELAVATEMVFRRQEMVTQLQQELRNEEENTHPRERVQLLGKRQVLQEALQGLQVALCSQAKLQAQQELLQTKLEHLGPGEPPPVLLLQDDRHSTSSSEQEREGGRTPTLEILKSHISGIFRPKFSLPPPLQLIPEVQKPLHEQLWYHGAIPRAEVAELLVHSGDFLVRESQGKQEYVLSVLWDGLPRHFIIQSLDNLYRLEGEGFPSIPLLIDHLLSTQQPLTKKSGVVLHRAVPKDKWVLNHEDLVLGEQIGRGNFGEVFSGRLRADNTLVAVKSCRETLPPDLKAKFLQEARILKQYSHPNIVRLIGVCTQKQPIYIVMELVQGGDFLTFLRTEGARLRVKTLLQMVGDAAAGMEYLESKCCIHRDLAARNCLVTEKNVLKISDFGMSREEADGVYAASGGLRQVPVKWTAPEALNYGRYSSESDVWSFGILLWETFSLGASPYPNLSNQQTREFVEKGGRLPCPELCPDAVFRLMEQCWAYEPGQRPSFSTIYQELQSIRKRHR

FGFR1 = FGFR1 (UniProt P11362); assay: as above
Chain of FGFR1 (P11362 whole entry, looked up): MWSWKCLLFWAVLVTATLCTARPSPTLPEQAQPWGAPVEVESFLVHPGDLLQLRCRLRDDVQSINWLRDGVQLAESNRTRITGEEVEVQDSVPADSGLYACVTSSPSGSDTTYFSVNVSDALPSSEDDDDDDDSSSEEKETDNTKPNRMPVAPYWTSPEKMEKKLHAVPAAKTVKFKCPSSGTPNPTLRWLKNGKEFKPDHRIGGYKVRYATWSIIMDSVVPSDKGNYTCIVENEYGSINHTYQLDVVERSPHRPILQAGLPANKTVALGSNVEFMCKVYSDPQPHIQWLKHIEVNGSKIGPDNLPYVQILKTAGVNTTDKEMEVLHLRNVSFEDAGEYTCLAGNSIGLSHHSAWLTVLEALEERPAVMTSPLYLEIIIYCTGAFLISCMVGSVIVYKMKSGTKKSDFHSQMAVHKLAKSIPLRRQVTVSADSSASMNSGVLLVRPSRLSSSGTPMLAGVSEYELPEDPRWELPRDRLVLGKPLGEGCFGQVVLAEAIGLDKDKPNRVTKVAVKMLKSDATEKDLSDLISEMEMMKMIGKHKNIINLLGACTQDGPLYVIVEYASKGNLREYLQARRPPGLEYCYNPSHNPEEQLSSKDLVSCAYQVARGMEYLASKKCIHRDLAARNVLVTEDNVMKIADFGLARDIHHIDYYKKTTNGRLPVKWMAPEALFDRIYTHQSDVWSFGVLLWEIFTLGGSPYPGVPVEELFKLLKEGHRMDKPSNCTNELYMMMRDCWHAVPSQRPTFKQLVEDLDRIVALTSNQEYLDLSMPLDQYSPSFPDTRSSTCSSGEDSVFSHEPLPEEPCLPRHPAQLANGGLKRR

MERTK = MERTK (UniProt Q12866); assay: as above
Fer (mouse) = assay: as above
EPHB2 = EPHB2 (UniProt P29323); assay: as above
Chain of EPHB2 (P29323 whole entry, looked up): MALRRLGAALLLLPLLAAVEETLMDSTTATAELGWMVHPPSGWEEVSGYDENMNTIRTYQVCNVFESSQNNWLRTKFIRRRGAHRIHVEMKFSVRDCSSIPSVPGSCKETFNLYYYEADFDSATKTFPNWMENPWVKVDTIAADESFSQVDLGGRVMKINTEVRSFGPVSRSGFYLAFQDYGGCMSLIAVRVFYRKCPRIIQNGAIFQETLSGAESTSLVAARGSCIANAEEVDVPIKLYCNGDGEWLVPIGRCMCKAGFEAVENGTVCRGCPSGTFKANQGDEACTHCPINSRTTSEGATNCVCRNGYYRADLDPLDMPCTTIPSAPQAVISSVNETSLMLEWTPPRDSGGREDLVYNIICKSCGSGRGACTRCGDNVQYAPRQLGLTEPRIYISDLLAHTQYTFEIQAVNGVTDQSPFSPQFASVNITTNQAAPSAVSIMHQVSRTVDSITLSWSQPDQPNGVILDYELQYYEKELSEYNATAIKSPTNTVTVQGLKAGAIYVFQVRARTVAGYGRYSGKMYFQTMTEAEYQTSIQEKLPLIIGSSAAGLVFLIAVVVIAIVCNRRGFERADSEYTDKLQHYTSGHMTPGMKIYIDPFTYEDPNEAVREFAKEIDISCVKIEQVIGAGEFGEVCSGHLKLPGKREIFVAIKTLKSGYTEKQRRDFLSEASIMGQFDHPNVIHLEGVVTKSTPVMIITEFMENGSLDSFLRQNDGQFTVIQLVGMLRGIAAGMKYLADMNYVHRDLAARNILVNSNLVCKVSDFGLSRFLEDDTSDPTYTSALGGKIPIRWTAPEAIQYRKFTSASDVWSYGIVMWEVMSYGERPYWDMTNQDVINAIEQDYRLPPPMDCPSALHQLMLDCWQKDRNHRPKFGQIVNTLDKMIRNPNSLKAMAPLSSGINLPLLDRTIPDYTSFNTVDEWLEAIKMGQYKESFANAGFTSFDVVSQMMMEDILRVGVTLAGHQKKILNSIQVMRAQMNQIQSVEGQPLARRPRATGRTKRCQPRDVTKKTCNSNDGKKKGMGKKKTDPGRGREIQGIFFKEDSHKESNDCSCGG

Hck = Hck (UniProt P08631); assay: as above
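Throughout, for SH2 binding enrichment of the phosphorylated peptide, bacterial display: peptide library displayed on the E. coli surface as eCPX fusions, selected cells deep-sequenced, score is each peptide's frequency after selection divided by its frequency in the input.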
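Throughout, for phosphorylation enrichment, bacterial display: 11-residue human phosphosite peptides and single-mutation variants displayed on the E. coli surface, counted by deep sequencing, each peptide's frequency after selection divided by its frequency in the unselected input library; frequency after pTyr selection over input frequency; kinase dosed for 20-30% of maximal phosphorylation in three min.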

Chain of Grb2 SH2 (P62993 whole entry, looked up): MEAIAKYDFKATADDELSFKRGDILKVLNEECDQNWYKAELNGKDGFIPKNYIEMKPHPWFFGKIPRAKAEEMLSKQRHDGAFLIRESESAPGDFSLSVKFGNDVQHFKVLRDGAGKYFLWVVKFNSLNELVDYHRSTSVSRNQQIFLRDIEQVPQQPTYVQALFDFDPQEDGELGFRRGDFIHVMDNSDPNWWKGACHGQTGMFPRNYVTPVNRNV

| Sequence | SH2 binding enrichment (c-Src SH2) | SH2 binding enrichment (SHP2-C SH2) | SH2 binding enrichment (Grb2 SH2) | phosphorylation enrichment (c-Src) | phosphorylation enrichment (AncSZ) | phosphorylation enrichment (Fyn) | phosphorylation enrichment (FGFR3) | phosphorylation enrichment (Jak2) | phosphorylation enrichment (c-Abl (mouse)) | phosphorylation enrichment (EPHB1) | phosphorylation enrichment (Fes) | phosphorylation enrichment (FGFR1) | phosphorylation enrichment (MERTK) | phosphorylation enrichment (Fer (mouse)) | phosphorylation enrichment (EPHB2) | phosphorylation enrichment (Hck) |
| --- | --- | --- | --- | --- | --- | --- | --- | --- | --- | --- | --- | --- | --- | --- | --- | --- |
| ETPSEYLEIVR [TMEM130_Y412] | 0.443 | 0.573 | 0.605 | 0.49 | 1.17 | 0.555 | 0.77 | 1.01 | 0.652 | 0.848 | 1.01 | 0.645 | 0.452 | 0.493 | 0.608 | 0.652 |
| ETRWKYHFEVV [GCNT3_Y267] | 0.437 | 0.678 | 0.712 | 0.364 | 1.42 | 0.439 | 1.04 | 1.35 | 0.979 | 0.701 | 1.52 | 0.505 | 0.418 | 0.57 | 0.706 | 0.563 |
| EVVGRYSVHNA [MLH1_Y183] | 0.42 | 0.597 | 0.668 | 0.497 | 0.633 | 0.487 | 0.513 | 0.698 | 0.589 | 0.437 | 0.717 | 0.457 | 0.421 | 0.405 | 0.451 | 0.488 |
| EWKNNCPRLRE [OPA1_Y582_Y582C] | 0.562 | 0.571 | 0.916 | 0.411 | 0.9 | 0.395 | 0.654 | 0.81 | 0.592 | 0.492 | 1.13 | 0.508 | 0.415 | 0.433 | 0.582 | 0.472 |
| EWQQIYTFDSG [JUP_Y20_T19I_YF] | 0.555 | 0.92 | 1.23 | 9.4 | 1.78 | 11.9 | 5.97 | 1.21 | 1.06 | 1.21 | 1.58 | 7.82 | 9.37 | 4.03 | 0.906 | 7.35 |
| EYQLPYYNTVP [BMPR1A_Y457_M460T] | 6.88 | 0.872 | 9.47 | 5.66 | 4.46 | 1.42 | 5.15 | 5.82 | 2.54 | 0.966 | 1.05 | 7.09 | 2.31 | 1.94 | 1.19 | 1.93 |
| EYRFIYMAVQH [PTPN11_Y515_Q510E] | 0.556 | 0.765 | 0.831 | 3.46 | 1.39 | 4.15 | 1.71 | 1.26 | 2.02 | 1.96 | 1.34 | 2.02 | 1.29 | 3.17 | 1.02 | 4.57 |
| FDFKKYGKGLR [ZNF445_Y433_YF] | 1.14 | 0.751 | 1.19 | 0.484 | 0.531 | 0.318 | 0.498 | 0.525 | 0.392 | 0.426 | 0.671 | 0.575 | 0.389 | 0.304 | 0.436 | 0.45 |
| FDNPIYQKTTE [LDLR_Y828_V827I] | 0.632 | 0.966 | 1.03 | 1.44 | 0.833 | 1.1 | 0.49 | 0.681 | 1.82 | 1.16 | 0.751 | 0.543 | 2.38 | 1.59 | 1.18 | 2.76 |
| FEDTLYTVLHR [UNC13D_Y61_A59T_YF] | 0.711 | 0.426 | 0.771 | 6.22 | 2.45 | 5.65 | 1.5 | 1.56 | 1.99 | 9.72 | 1.38 | 1.18 | 7.86 | 5.83 | 4.95 | 7.58 |
| FFLGKYLQEVL [KLB_Y910_YF] | 1.29 | 1.71 | 1.99 | 0.469 | 0.963 | 0.342 | 0.498 | 0.911 | 0.665 | 0.486 | 1.19 | 0.436 | 0.391 | 0.441 | 0.474 | 0.42 |
| FGFPGYQSKHF [TIMP3_Y177_YF] | 0.588 | 0.75 | 1.07 | 0.401 | 0.534 | 0.521 | 0.499 | 0.5 | 0.574 | 0.422 | 0.651 | 0.47 | 0.405 | 0.406 | 0.398 | 0.496 |
| FGGLRYGFGVL [KRTAP20-2_Y13_YF] | 0.674 | 0.913 | 0.732 | 0.35 | 0.786 | 0.348 | 0.56 | 0.753 | 0.608 | 0.443 | 0.876 | 0.733 | 0.42 | 0.351 | 0.379 | 0.399 |
| FGIAQYCCRMG [LRRK2_Y2023_YF] | 0.936 | 0.836 | 1.26 | 0.417 | 0.908 | 0.423 | 0.584 | 0.625 | 1.34 | 0.751 | 0.797 | 0.614 | 1.25 | 0.467 | 6.66 | 0.777 |
| FGSSSSGGAGG [RPA2_Y14_Y14S_YF] | 0.358 | 0.622 | 0.854 | 0.458 | 0.499 | 0.419 | 0.455 | 0.669 | 0.511 | 0.287 | 0.638 | 0.409 | 0.394 | 0.417 | 0.31 | 0.312 |
| FIAVGYVDDSQ [HLA-A_Y51_T55S] | 0.704 | 0.959 | 0.91 | 0.394 | 0.783 | 0.333 | 0.629 | 0.839 | 0.617 | 0.469 | 1.08 | 0.391 | 0.3 | 0.444 | 0.491 | 0.445 |
| FLAATYPTLGQ [NF1_Y2508_V2511L_YF] | 0.572 | 0.814 | 0.866 | 0.404 | 0.572 | 0.422 | 0.572 | 0.523 | 0.549 | 0.723 | 0.674 | 0.424 | 0.356 | 0.4 | 0.4 | 0.389 |

| Sequence | SH2 binding enrichment (c-Src SH2) | SH2 binding enrichment (SHP2-C SH2) | SH2 binding enrichment (Grb2 SH2) | phosphorylation enrichment (c-Src) | phosphorylation enrichment (AncSZ) | phosphorylation enrichment (Fyn) | phosphorylation enrichment (FGFR3) | phosphorylation enrichment (Jak2) | phosphorylation enrichment (c-Abl (mouse)) | phosphorylation enrichment (EPHB1) | phosphorylation enrichment (Fes) | phosphorylation enrichment (FGFR1) | phosphorylation enrichment (MERTK) | phosphorylation enrichment (Fer (mouse)) | phosphorylation enrichment (EPHB2) | phosphorylation enrichment (Hck) |
| --- | --- | --- | --- | --- | --- | --- | --- | --- | --- | --- | --- | --- | --- | --- | --- | --- |
| FLAVGYHKLHI [IDS_Y225_P228L] | 1.25 | 1.42 | 1.36 | 0.462 | 1.03 | 0.647 | 0.804 | 1.13 | 0.833 | 0.545 | 1.14 | 0.447 | 0.471 | 0.432 | 0.575 | 0.427 |
| FLAVGYHKPRI [IDS_Y225_H229R] | 1.64 | 1.6 | 1.61 | 0.305 | 0.638 | 0.426 | 0.5 | 0.502 | 0.481 | 0.477 | 0.838 | 0.379 | 0.272 | 0.402 | 0.44 | 0.374 |
| FLAVGYHMPHI [IDS_Y225_K227M] | 3.36 | 1.18 | 1.1 | 0.334 | 0.761 | 0.395 | 0.562 | 0.862 | 1.33 | 0.346 | 0.833 | 0.485 | 0.313 | 0.402 | 0.403 | 0.51 |
| FLGKGYSDGGC [MC4R_Y35_S30F] | 0.509 | 0.832 | 1.1 | 0.592 | 0.876 | 0.548 | 0.623 | 0.95 | 0.818 | 0.503 | 1.14 | 0.672 | 0.552 | 0.542 | 0.567 | 0.579 |
| FPDFVYKCIKA [DPYSL2_Y479_R481C] | 0.538 | 0.727 | 0.818 | 0.595 | 1.35 | 0.51 | 0.788 | 1.44 | 0.95 | 0.691 | 1.39 | 0.616 | 0.446 | 0.533 | 0.613 | 0.563 |
| FPKVRYHWLVL [APTX_Y214_A212V_YF] | 0.892 | 0.999 | 1.31 | 0.513 | 0.994 | 0.42 | 0.631 | 1.18 | 0.978 | 0.81 | 1.21 | 0.428 | 0.461 | 0.529 | 0.672 | 0.425 |
| FPLELYERVRM [PRKCG_Y312_YF] | 0.485 | 0.722 | 0.832 | 0.488 | 1.39 | 0.629 | 0.932 | 1.09 | 0.804 | 1.94 | 1.28 | 0.988 | 0.444 | 2.39 | 0.982 | 1.24 |
| FPMLNYKDIRK [CFAP221_Y798] | 0.516 | 0.635 | 0.976 | 0.416 | 0.49 | 0.493 | 0.408 | 0.469 | 0.398 | 0.292 | 0.628 | 0.346 | 0.431 | 0.362 | 0.384 | 0.441 |
| FPPTHYIRRMP [SLC4A11_Y820_V824M_YF] | 0.506 | 0.821 | 0.982 | 0.543 | 0.919 | 0.561 | 0.502 | 0.597 | 0.718 | 0.528 | 0.981 | 0.498 | 0.524 | 0.445 | 0.661 | 0.601 |
| FQEKGYNKELR [CHRND_Y38] | 0.485 | 0.882 | 0.814 | 0.378 | 0.675 | 0.335 | 0.519 | 0.57 | 0.45 | 0.45 | 0.74 | 0.471 | 0.382 | 0.376 | 0.268 | 0.351 |
| FQEKSYIKGTS [LCTL_Y331_L326F] | 0.416 | 0.553 | 0.918 | 0.457 | 0.625 | 0.364 | 0.426 | 0.87 | 0.612 | 0.33 | 0.657 | 0.423 | 0.321 | 0.355 | 0.531 | 0.398 |
| FRQLPYCPSVE [CTNND2_Y508_Q507P_YF] | 0.458 | 0.472 | 0.722 | 0.499 | 1.25 | 0.538 | 1.2 | 1.08 | 0.837 | 0.647 | 1.39 | 0.526 | 0.486 | 0.603 | 0.748 | 0.776 |
| FRQLQYCPSVE [CTNND2_Y508_YF] | 0.489 | 0.658 | 0.876 | 0.456 | 0.949 | 0.501 | 0.861 | 0.901 | 0.808 | 0.669 | 1.15 | 0.525 | 0.478 | 0.514 | 0.605 | 0.499 |
| FSDPSYVKQME [CDC5L_Y464_YF] | 0.518 | 0.892 | 0.883 | 0.411 | 0.867 | 0.532 | 1.36 | 0.704 | 0.471 | 0.476 | 0.939 | 0.558 | 0.407 | 0.452 | 0.581 | 0.505 |
| FSGDCYRIQGR [DDR2_Y741_Y740C_YF] | 0.502 | 0.661 | 0.806 | 0.45 | 0.989 | 0.446 | 0.666 | 0.764 | 0.636 | 0.593 | 1.05 | 0.431 | 0.35 | 0.493 | 0.659 | 0.472 |
| FSLPAYMDRRD [COX4I1_Y38] | 0.626 | 0.72 | 0.772 | 0.424 | 0.873 | 0.355 | 0.622 | 0.696 | 0.87 | 0.459 | 0.815 | 0.464 | 0.425 | 0.432 | 0.471 | 0.492 |
